What was measured:
[1] = biological target: T1, Streptomyces sp. strain TH1 L-proline-3-hydroxylase (cis-P3H, SEQ ID NO. 1) mutant R97M (Streptomyces sp., UniProt P96010, R97M); assay: Kinetic parameters of L-proline-3-hydroxylase mutant R97M (Michaelis-Menten fit); assay type: biochemical
T1 sequence (P96010 1-290 R97M): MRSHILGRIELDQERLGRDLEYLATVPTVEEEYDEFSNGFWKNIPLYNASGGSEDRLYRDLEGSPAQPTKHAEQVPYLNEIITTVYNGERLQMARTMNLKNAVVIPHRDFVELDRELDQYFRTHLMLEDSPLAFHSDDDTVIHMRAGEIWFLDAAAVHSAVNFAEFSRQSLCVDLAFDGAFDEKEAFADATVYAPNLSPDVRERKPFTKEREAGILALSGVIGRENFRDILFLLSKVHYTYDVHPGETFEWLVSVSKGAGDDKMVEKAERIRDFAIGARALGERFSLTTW
Description: […]
(§1) The reaction was terminated by boiling, and the sample after the termination of reaction was analyzed by high-performance liquid chromatography (HPLC). […]
(§2) Kinetic parameters (Km and Vmax) were determined using a reaction mixture with a final volume of 250 μL. […]

[2] = biological target: T2, Streptomyces sp. strain TH1 L-proline-3-hydroxylase (cis-P3H), wild type (WT), SEQ ID NO. 1 (Streptomyces sp., UniProt P96010); assay: Kinetic parameters of wild-type L-proline-3-hydroxylase (Michaelis-Menten fit); assay type: biochemical; conditions: WT pure enzyme; L-pipecolic acid 0.30 to 25 mM, 2-OG 0.30 to 40 mM; pH 6.5, 17° C.; three measurements
T2 sequence (P96010 1-290): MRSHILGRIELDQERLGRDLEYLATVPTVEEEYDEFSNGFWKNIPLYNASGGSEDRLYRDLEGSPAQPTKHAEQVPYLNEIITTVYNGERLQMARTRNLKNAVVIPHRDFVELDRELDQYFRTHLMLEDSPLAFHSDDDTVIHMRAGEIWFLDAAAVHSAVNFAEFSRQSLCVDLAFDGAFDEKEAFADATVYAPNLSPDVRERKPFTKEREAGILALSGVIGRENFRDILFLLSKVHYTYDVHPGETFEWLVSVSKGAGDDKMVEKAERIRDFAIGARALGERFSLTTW
Description: […]
as §1, §2

[3] = substrate: O=C(O)CCC(=O)C(=O)O; assay: purified protein, by the assay type; conditions: L-pipecolic acid 0.30 to 25 mM, 2-OG 0.30 to 40 mM, pH 6.5, 17° C., three measurements
[4] = substrate: O=C(O)[C@@H]1CCCCN1; assay: Kinetic parameters of L-proline-3-hydroxylase mutant R97M (Michaelis-Menten fit); assay type: biochemical, Streptomyces sp. strain TH1; conditions: other: R97M pure enzyme, L-pipecolic acid 0.30 to 25 mM, 2-OG 0.30 to 40 mM, pH 6.5, 17° C., three measurements
Description: (§3) The present disclosure further provides a method for constructing the L-proline-3-hydroxylase mutant above, the method includes the following steps: • (1) according to sequence information of the L-proline-3-hydroxylase from Streptomyces sp. strain TH1 disclosed in the NCBI database, performing codon optimization based on codon preference rules of Escherichia coli to obtain an optimized gene of L-proline-3-hydroxylase; connecting the optimized gene of L-proline-3-hydroxylase into an expression vector pET28a to construct an L-proline-3-hydroxylase expression vector; • (2) using genes (involved in site-directed saturation mutagenesis) synthesized by GENCEFE Biotech to prepare an expression vector containing the L-proline-3-hydroxylase mutant; • (3) transforming the above vectors into BL21 engineering bacteria by chemical transformation to express each enzyme protein; culturing the strain in a test tube at 37° C. shaker overnight, transferring the same to an LB liquid culture medium containing 50 mg·L^−1 kanamycin at a 2% inoculation rate, culturing at 37° C. for 2-2.5 hours, and then adding IPTG with a concentration of 0.10 mM to adjust a temperature to 17° C. and culturing for 16 hours; • (4) centrifuging at 8000 r·min^−1 for 5 minutes and collecting bacterial pellets, disrupting cells through an ultrasonic disruption method, centrifuging in a refrigerated centrifuge at 12000 r·min^−1 for 30 minutes to collect supernatant, directly using the supernatant for crude enzyme reaction to explore changes in molar yield under crude enzyme conditions; or purifying the supernatant with a nickel column, and enzymatic properties such as enzyme activity and kinetic parameters of the pure L-proline-3-hydroxylase can be determined. Specifically, the enzyme activity is detected using an Fmoc-Cl pre-column derivatization method, and analyzed by high-performance liquid chromatography (HPLC). The kinetic parameters (Km and Vmax) are measured in a standard enzyme activity assay system, with three separate measurements. Data are fitted to a Michaelis-Menten model using GraphPad Prism, and a protein concentration is kept at 0.50 mg·mL-1 during the measurements.
(§4) Specifically, the reaction under crude enzyme conditions was performed for 12 hours, the reaction under pure enzyme conditions was performed for 15 minutes, and a final protein concentration for the reaction under pure enzyme conditions was 0.5 mg·mL^−1.
as §1, §2

[5] = substrate: O=C(O)[C@@H]1CCCCN1; assay: Kinetic parameters of wild-type L-proline-3-hydroxylase (Michaelis-Menten fit); assay type: biochemical, Streptomyces sp. strain TH1; conditions: other: WT pure enzyme, L-pipecolic acid 0.30 to 25 mM, 2-OG 0.30 to 40 mM, pH 6.5, 17° C., three measurements
Description: as §3, §4, §1, §2

Molecule: O=C(O)[C@@H]1CCCCN1 [L-Pip, L-pipecolic acid]
- kcat/Km ([1]; R97M pure enzyme, L-pipecolic acid 0.30 to 25 mM, 2-OG 0.30 to 40 mM, pH 6.5, 17° C., three measurements): 34.8 M⁻¹ s⁻¹
- catalytic efficiency kcat/Km of R97M relative to WT ([1]; ratio R97M / WT): 1.83 times
- kcat/Km [2]: 19 M⁻¹ s⁻¹

B1: Streptomyces sp. strain TH1 L-proline-3-hydroxylase (cis-P3H, SEQ ID NO. 1) mutant R97M (Streptomyces sp.; R97M) (protein)
chain: MRSHILGRIELDQERLGRDLEYLATVPTVEEEYDEFSNGFWKNIPLYNASGGSEDRLYRDLEGSPAQPTKHAEQVPYLNEIITTVYNGERLQMARTMNLKNAVVIPHRDFVELDRELDQYFRTHLMLEDSPLAFHSDDDTVIHMRAGEIWFLDAAAVHSAVNFAEFSRQSLCVDLAFDGAFDEKEAFADATVYAPNLSPDVRERKPFTKEREAGILALSGVIGRENFRDILFLLSKVHYTYDVHPGETFEWLVSVSKGAGDDKMVEKAERIRDFAIGARALGERFSLTTW
- Km ([3]; other: R97M pure enzyme): 1.46 ± 0.01 mM
- Vmax ([3]; other: R97M pure enzyme): 139 µM/min
- kcat ([3]; other: R97M pure enzyme): 0.151 s⁻¹
- kcat/Km ([3]; other: R97M pure enzyme): 104 M⁻¹ s⁻¹
- Km [4]: 6.83 ± 0.32 mM
- Vmax [4]: 212 µM/min
- kcat [4]: 0.23 ± 0.00367 s⁻¹
- kcat/Km [4]: 34.8 ± 1 M⁻¹ s⁻¹

B2: Streptomyces sp. strain TH1 L-proline-3-hydroxylase (cis-P3H), wild type (WT), SEQ ID NO. 1 (Streptomyces sp.) (protein)
chain: MRSHILGRIELDQERLGRDLEYLATVPTVEEEYDEFSNGFWKNIPLYNASGGSEDRLYRDLEGSPAQPTKHAEQVPYLNEIITTVYNGERLQMARTRNLKNAVVIPHRDFVELDRELDQYFRTHLMLEDSPLAFHSDDDTVIHMRAGEIWFLDAAAVHSAVNFAEFSRQSLCVDLAFDGAFDEKEAFADATVYAPNLSPDVRERKPFTKEREAGILALSGVIGRENFRDILFLLSKVHYTYDVHPGETFEWLVSVSKGAGDDKMVEKAERIRDFAIGARALGERFSLTTW
- Km ([3]; other: WT pure enzyme): 0.76 ± 0.02 mM
- Vmax ([3]; other: WT pure enzyme): 101 µM/min
- kcat ([3]; other: WT pure enzyme): 0.102 s⁻¹
- kcat/Km ([3]; other: WT pure enzyme): 134 M⁻¹ s⁻¹
- Km [5]: 10.27 ± 0.40 mM
- Vmax [5]: 201 µM/min
- kcat [5]: 0.2038 ± 0.002 s⁻¹
- kcat/Km [5]: 19 ± 0.5 M⁻¹ s⁻¹
